According to patent US20180095078:

Legend:
[1] = target: Hepatitis B surface antigen (HBsAg) (Hepatitis B virus) (UniProt P03138); experiment: pulldown; conditions: magnetic bead pulldown with q-PCR; BD buffer, room temperature
[2] = target: HCV NS3 protein (Hepatitis C virus) (UniProt P27958); experiment: pulldown; conditions: magnetic bead pulldown with q-PCR; BD buffer, room temperature
Chain of HCV NS3 protein (Hepatitis C virus) (P27958 1027-1657): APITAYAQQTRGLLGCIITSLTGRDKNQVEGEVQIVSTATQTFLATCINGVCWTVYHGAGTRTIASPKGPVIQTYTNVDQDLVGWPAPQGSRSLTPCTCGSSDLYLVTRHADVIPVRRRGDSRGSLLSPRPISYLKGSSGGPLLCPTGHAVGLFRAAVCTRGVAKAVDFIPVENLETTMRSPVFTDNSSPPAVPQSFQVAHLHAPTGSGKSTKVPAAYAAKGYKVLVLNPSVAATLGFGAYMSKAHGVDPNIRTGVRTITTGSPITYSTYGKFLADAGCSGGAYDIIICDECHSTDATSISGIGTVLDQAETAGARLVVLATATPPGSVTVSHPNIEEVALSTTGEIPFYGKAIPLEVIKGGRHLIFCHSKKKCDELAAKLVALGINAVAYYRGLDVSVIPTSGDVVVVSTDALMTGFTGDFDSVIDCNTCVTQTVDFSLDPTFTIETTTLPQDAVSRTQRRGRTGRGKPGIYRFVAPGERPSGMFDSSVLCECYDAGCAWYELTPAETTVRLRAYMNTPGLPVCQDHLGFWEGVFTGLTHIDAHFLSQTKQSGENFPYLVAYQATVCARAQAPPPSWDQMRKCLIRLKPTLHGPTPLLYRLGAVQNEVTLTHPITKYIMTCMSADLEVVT

Sequence	Kd [1]	Kd [2]
AGCAGCACAGAGGTCCCAACCGGAATCTGCACCTCGCGTGCTACCGTGAA [K2-4]	0.0314 µM	–
AGCAGCACAGAGGTCCCCATGTCCACCTTTCTGTGGCGTGCTACCGTGAA [K3-1]	–	0.0159 µM
AGCAGCACAGAGGTCCTGCATCACGAAGCCTGGCAGCGTGCTACCGTGAA [MP-1]	0.0283 µM	0.0233 µM
